Measurements from article PMC9332313, “Folding and Binding Mechanisms of the SH2 Domain from Crkl” (Biomolecules, 2022).
Square brackets hold non-standard residues; d marks the D form. Ends that are not written are not given here. * marks the point of attachment. pY = N[C@@H](Cc1ccc(OP(=O)(O)O)cc1)C(=O)O; Dansyl = CN(C)c1cccc2c(S(=O)(=O)*)cccc12

Key:
Settings in all cases: both partners purified
[1] = molecular target: T1, SH2 domain of Crkl protein (residues 1-111), H91A variant (UniProt P46109 1-111, H91A); test: stopped-flow fluorescence kinetics (FRET); dansyl-Pax112-123 constant at 2 μM mixed with Crkl-SH2 2 to 10 μM (pseudo-first-order, kon); koff by displacement of the preincubated 2 µM complex with excess non-dansylated Pax112-123 (30 μM); 283 K; 50 mM BisTRIS pH 6.0, 0.5 M NaCl
T1 construct: Crkl adaptor protein, SH2 domain, residues 1-111, His91 replaced by alanine; Site-directed mutant of m1 (QuikChange); source: E. coli BL21 (DE3), purified (HisTrap nickel column, desalting); not shown: His tag, N-terminal, kept

[2] = molecular target: T2, SH2 domain of Crkl protein (residues 1-111), H80A variant (UniProt P46109 1-111, H80A); test: as above
T2 construct: Crkl adaptor protein, SH2 domain, residues 1-111, His80 replaced by alanine; Site-directed mutant of m1 (QuikChange); source: E. coli BL21 (DE3), purified (HisTrap nickel column, desalting); not shown: His tag, N-terminal, kept

[3] = molecular target: T3, SH2 domain of Crkl protein (residues 1-111), H33A variant (UniProt P46109 1-111, H33A); test: as above
T3 construct: Crkl adaptor protein, SH2 domain, residues 1-111, His33 replaced by alanine; Site-directed mutant of m1 (QuikChange); source: E. coli BL21 (DE3), purified (HisTrap nickel column, desalting); not shown: His tag, N-terminal, kept

[4] = molecular target: T2, SH2 domain of Crkl protein (residues …); test: stopped-flow fluorescence kinetics (FRET); dansyl-Pax112-123 constant at 2 μM mixed with Crkl-SH2 2 to 10 μM (pseudo-first-order, kon); koff by displacement of the preincubated 2 µM complex with excess non-dansylated Pax112-123 (30 μM); 283 K; 50 mM TrisHCl pH 8.0, 0.5 M NaCl
[5] = molecular target: T3, SH2 domain of Crkl protein (residues …); test: as above
[6] = molecular target: T1, SH2 domain of Crkl protein (residues …); test: stopped-flow fluorescence kinetics (FRET); dansyl-Pax112-123 constant at 2 μM mixed with Crkl-SH2 2 to 10 μM (pseudo-first-order, kon); koff by displacement of the preincubated 2 µM complex with excess non-dansylated Pax112-123 (30 μM); 283 K; 50 mM BisTRIS pH 6.8, 0.5 M NaCl
[7] = molecular target: T2, SH2 domain of Crkl protein (residues …); test: as above
[8] = molecular target: T3, SH2 domain of Crkl protein (residues …); test: as above
[9] = molecular target: T4, SH2 domain of Crkl protein (residues 1-111), wild type (UniProt P46109 1-111); test: as above
T4 construct: Crkl adaptor protein, SH2 domain, residues 1-111; Subcloned in pET28b+; all experiments were done on the N-terminally His-tagged protein; also called Crkl-SH2; Crkl SH2 domain; source: E. coli BL21 (DE3), purified (HisTrap nickel column, desalting); not shown: His tag, N-terminal, kept
T4 sequence (P46109 1-111): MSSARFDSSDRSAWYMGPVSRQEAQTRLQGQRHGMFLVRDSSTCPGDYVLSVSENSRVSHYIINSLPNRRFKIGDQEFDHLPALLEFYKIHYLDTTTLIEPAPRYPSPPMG

T3 sequence (P46109 1-111 H33A): as the sequence (P46109 1-111) above, with H33A counted along it
T2 sequence (P46109 1-111 H80A): as the sequence (P46109 1-111) above, with H80A counted along it
T1 sequence (P46109 1-111 H91A): as the sequence (P46109 1-111) above, with H91A counted along it

B1: dansylated Pax_(112–123) peptide (Dans-GEEEHV-pY-SFPNK) (peptide)
peptide: Dansyl-GEEEHV[pY]SFPNK
notes: The dansyl group is the FRET acceptor of Trp14 of the SH2 domain; source: synthetic peptide, bought: GenScript
[1]
  Kd: 3000 ± 100 nM
  koff: 20 ± 0.3 s⁻¹
  kon: 6.6e+06 ± 200000 M⁻¹ s⁻¹
[2]
  Kd: 3.2 ± 0.1 µM
  koff: 19.6 ± 0.3 s⁻¹
  kon: 6.1e+06 ± 300000 M⁻¹ s⁻¹
[3]
  Kd: 3.3 ± 0.2 µM
  koff: 19.5 ± 0.4 s⁻¹
  kon: 5.9e+06 ± 300000 M⁻¹ s⁻¹
[4]
  Kd: 2300 ± 300 nM
  koff: 30.1 ± 3.3 s⁻¹
  kon: 1.32e+07 ± 700000 M⁻¹ s⁻¹
[5]
  Kd: 2000 ± 300 nM
  koff: 29.3 ± 3.4 s⁻¹
  kon: 1.46e+07 ± 1.1e+06 M⁻¹ s⁻¹
[6]
  Kd: 3000 ± 100 nM
  koff: 23.4 ± 0.4 s⁻¹
  kon: 7.8e+06 ± 300000 M⁻¹ s⁻¹
[7]
  Kd: 3.1 ± 0.2 µM
  koff: 21.6 ± 0.4 s⁻¹
  kon: 7.1e+06 ± 400000 M⁻¹ s⁻¹
[8]
  Kd: 3.4 ± 0.2 µM
  koff: 22.4 ± 0.5 s⁻¹
  kon: 6.6e+06 ± 400000 M⁻¹ s⁻¹
[9]
  Kd: 2400 ± 100 nM
  koff: 21.4 ± 0.2 s⁻¹
  kon: 8.9e+06 ± 400000 M⁻¹ s⁻¹
